The values that follow come from patent US20150183871A1 (AbbVie / Abbott, published 2015).

The target of assay [1] is T1, recombinant purified human RGM A (human, UniProt Q96B86 48-424, limits assumed).
T1 construct: Bought recombinant protein (R&D Systems); also called hRGM A; hRGMA
T1 sequence: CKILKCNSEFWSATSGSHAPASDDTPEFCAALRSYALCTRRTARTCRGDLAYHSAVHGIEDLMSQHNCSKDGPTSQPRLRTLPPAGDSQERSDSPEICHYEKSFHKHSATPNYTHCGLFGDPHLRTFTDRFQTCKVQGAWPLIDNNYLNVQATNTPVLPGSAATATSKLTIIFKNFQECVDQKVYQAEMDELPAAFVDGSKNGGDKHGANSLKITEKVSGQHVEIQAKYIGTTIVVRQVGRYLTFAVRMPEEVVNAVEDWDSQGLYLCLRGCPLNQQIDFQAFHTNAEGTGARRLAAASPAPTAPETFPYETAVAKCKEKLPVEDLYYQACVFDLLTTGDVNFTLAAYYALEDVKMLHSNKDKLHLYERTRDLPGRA
The assay is described as follows: direct ELISA, plate coated with hRGM A at 2 µg/ml, biotinylated antibody in 1:5 dilution steps, streptavidin-HRP, OD 450 nm. Here is the method:
(i) Direct binding ELISA plates were coated with hRGM A (R&D) at a concentration of 2 μg/ml in Carbonate buffer. The wells were then blocked with 2% Blocking solution (Bio-Rad) for 1 hour at room temperature. Biotinylated antibodies were serially diluted with a 1:5 dilution factor in 0.1% BSNPBS down the plate and incubated for 1 hour at room temperature. The detection reagent was a 1:10,000 dilution of streptavidin-HRP in 0.1% BSNPBS. Detection was done with a TMB reagent, which was stopped with 2N H₂SO₄ and OD was read at 450 nm.
FAGS was carried out as described in section (ii).

Assay [2] has as its target T1, recombinant purified human RGM A. The assay is described as follows: SPR (Biacore 3000), antibody captured by anti-human IgG Fc, hRGMA in solution, 25 °C. Here is the method: The BIACORE assay (Biacore, Inc, Piscataway, N.J.) determines the affinity of antibodies with kinetic measurements of on-, off-rate constants. Binding of antibodies to recombinant purified human RGMA was determined by surface plasmon resonance-based measurements with a Biacore® 3000 instrument (Biacore® AB, Uppsala, Sweden) using running HBS-EP (10 mM HEPES [pH 7.4], 150 mM NaCl, 3 mM EDTA, and 0.005% surfactant P20) at 25° C. All chemicals were obtained from Biacore® AB (Uppsala, Sweden). Approximately 5000 RU of goat anti-human IgG, (Fey), fragment specific polyclonal antibody (Pierce Biotechnology Inc, Rockford, Ill.) diluted in 10 mM sodium acetate (pH 4.5) was directly immobilized across a CM5 research grade biosensor chip using a standard amine coupling kit according to manufacturers instructions and procedures at 25 μg/ml. Unreacted moieties on the biosensor surface were blocked with ethanolamine. Modified carboxymethyl dextran surface in flowcell 2 and 4 was used as a reaction surface. Unmodified carboxymethyl dextran without goat anti-human IgG in flow cell 1 and 3 was used as the reference surface. Purified antibodies were diluted in HEPES-buffered saline for capture across goat anti-humanIgG specific reaction surfaces. Human antibodies to be captured as a ligand (25 μg/ml) were injected over reaction matrices at a flow rate of 5 μl/min. The association and dissociation rate constants, kₒₙ (unit M⁻¹s⁻¹) and koff (unit s⁻¹) were determined under a continuous flow rate of 25 μl/min. Rate constants were derived by making kinetic binding measurements at […] different antigen concentrations ranging from 0.39-50 nM. For kinetic analysis, rate equations derived from the 1:1 Langmuir binding model were fitted simultaneously to association and dissociation phases of all eight injections (using global fit analysis) with the use of Biaevaluation 4.0.1 software. The equilibrium dissociation constant (unit M) of the reaction between humanized antibodies and recombinant purified human RGMA was then calculated from the kinetic rate constants by the following formula: KD=koff/kₒₙ.
(In general: SPR reads the build-up and loss of mass on a sensor chip optically.)

Assay [3] shares this target. The assay is described as follows: competition ELISA on coated hRGMA; competitor biotinylated chimeric 5F9. The protocol: ELISA plates (Costar 3369) were coated overnight at 4° c. with 50 μl/well of 0.25 μg/ml hRGMA in 0.2 M sodium carbonate-bicarbonate buffer, pH 9.4, washed with Wash Buffer (PBS containing 0.1% Tween 20), and blocked for 1 hr at room temperature with 200 μl/well of 2% nonfat dry milk in PBS. After washing with Wash Buffer, a mixture of a biotinylated chimeric 5F9 (0.1 IJg/ml final concentration) and unlabelled competitor test antibody starting at 50 IJg/ml final concentration and serially diluted 5-fold) in 50 μl/well of ELISA buffer was added in duplicate. After incubating the plates for 1 hr at room temperature, and washing with Wash Buffer, bound antibodies were detected using 100 μl/well of 1:10,000 dilution of HRP-conjugated streptavidin (Fitzgerald) in ELISA buffer. After incubating for 1 hr at room temperature, and washing with Wash Buffer, color development was performed by adding 100 μl/well of TMB Buffer (Zymed). After incubating for 15 min at room temperature, color development was stopped by adding 50 μl/well of 1 N hydrochloric acid. Absorbance was read at 490 nm.

B1: rat anti-human RGM A monoclonal antibody 5F9 (antibody, V domains shown)
VH: EVQLVESGGGLVQPGSSLKLSCVASGFTFSNYGMNWIRQAPKKGLEWIGMIYYDSSEKHYADSVKGRFTISRDNSKNTLYLEMNSLRSEDTAIYYCAKGTTPDYWGQGVMVTVSS
VL: DVVLTQTPVSLSVTLGDQASMSCRSSQSLEYSDGYTFLEWFLQKPGQSPQLLIYEVSNRFSGVPDRFIGSGSGTDFTLKISRVEPEDLGVYYCFQATHDPLTFGSGTKLEIKR
notes: Rat hybridoma antibody; also called ML69-5F9; MAB 5F9
As to B1, in assay [1], the “EC50 (read off the curve)” value was approximately 0.08 mg/L.

B2: chimeric 5F9 (antibody, V domains shown)
VH: EVQLVESGGGLVQPGSSLKLSCVASGFTFSNYGMNWIRQAPKKGLEWIGMIYYDSSEKHYADSVKGRFTISRDNSKNTLYLEMNSLRSEDTAIYYCAKGTTPDYWGQGVMVTVSS
VL: DVVLTQTPVSLSVTLGDQASMSCRSSQSLEYSDGYTFLEWFLQKPGQSPQLLIYEVSNRFSGVPDRFIGSGSGTDFTLKISRVEPEDLGVYYCFQATHDPLTFGSGTKLEIKR
notes: also called chimeric human-rat 5F9; biotinylated chimeric 5F9
With B2, in assay [2], the dissociation constant (Kd) is 3.09 nM, the koff is 0.00236 s⁻¹ and the kon is 765000 M⁻¹ s⁻¹.

B3: humanized antibody h5F9.25 (antibody, V domains shown)
VH: EVQLVESGGGLVQPGGSLRLSCAASGFTFSNYGMNWIRQAPGKGLEWIGMIYYDSSEKHYADSVKGRFTISRDNSKNTLYLQMNSLRAEDTAVYYCAKGTTPDYWGQGTMVTVSS
VL: DVVLTQSPLSLPVTLGQPASISCRSSQSLEYSDGYTFLEWFLQKPGQSPQLLIYEVSNRFSGVPDRFSGSGSGTDFTLKISRVEAEDVGVYYCFQATHDPLTFGQGTKLEIKR
As to B3, the IC50 in assay [3] was 0.66 mg/L. Moreover, in assay [2], the dissociation constant (Kd) worked out at 5.78 nM, the dissociation rate constant (koff) is 0.00329 s⁻¹ and the on-rate (kon) came to 570000 M⁻¹ s⁻¹.

B4: humanized antibody h5F9.21 (antibody, V domains shown)
VH: EVQLVESGGGVVQPGRSLRLSCAASGFTFSNYGMNWIRQAPGKGLEWIGMIYYDSSEKHYADSVKGRFTISRDNSKNTLYLQMNSLRAEDTAVYYCAKGTTPDYWGQGTMVTVSS
VL: DVVLTQSPLSLPVTLGQPASISCRSSQSLEYSDGYTFLEWFLQKPGQSPQLLIYEVSNRFSGVPDRFSGSGSGTDFTLKISRVEAEDVGVYYCFQATHDPLTFGQGTKLEIKR
Regarding B4, the concentration for half-maximal inhibition (IC50) in assay [3] amounted to 0.6 mg/L. In assay [2], the Kd was 7.59 nM, the off-rate (koff) is 0.00269 s⁻¹ and the kon came out at 355000 M⁻¹ s⁻¹.

B5: humanized antibody h5F9.24 (antibody, V domains shown)
VH: EVQLVESGGGLVQPGGSLRLSCAASGFTFSNYGMNWIRQAPGKGLEWIGMIYYDSSEKHYADSVKGRFTISRDNSKNTLYLQMNSLRAEDTAVYYCAKGTTPDYWGQGTMVTVSS
VL: DVVLTQSPLSLPVTLGQPASISCRSSQSLEYSDGYTFLEWFQQRPGQSPRRLIYEVSNRFSGVPDRFSGSGSGTDFTLKISRVEAEDVGVYYCFQATHDPLTFGQGTKLEIKR
For the molecule B5, in assay [3], the IC50 was determined as 1.32 mg/L.

B6: humanized antibody h5F9.23 (antibody, V domains shown)
VH: EVQLVESGGGLVQPGGSLRLSCAASGFTFSNYGMNWIRQAPGKGLEWIGMIYYDSSEKHYADSVKGRFTISRDNSKNTLYLQMNSLRAEDTAVYYCAKGTTPDYWGQGTMVTVSS
VL: DVVLTQSPLSLPVTLGQPASISCRSSQSLEYSDGYTFLEWFQQRPGQSPRLLIYEVSNRFSGVPDRFSGSGSGTDFTLKISRVEAEDVGVYYCFQATHDPLTFGQGTKLEIKR
Turning to B6, the IC50 in assay [3] was found to be 0.55 mg/L. In addition, in assay [2], the Kd is 4.37 nM, the koff was found to be 0.00221 s⁻¹ and the on-rate constant (kon) was found to be 507000 M⁻¹ s⁻¹.

The EC50 (read off the curve) is the concentration that produces a half-maximal response. By Kd is commonly meant the constant that tells how readily two partners part at equilibrium. Broadly, the koff is the rate constant with which the complex falls apart. The term kon denotes a measure of how fast the partners come together. One may read the IC50 as the concentration needed to halve the response being measured.
